B1: Hairpin Ribozyme (parent)
chain: GUCCUCUUUCACGUGCGCGUGAAAGAGAGAAGUGAACCAGAGAAACACACGUUGUGGUAUAUUACCUGGUA

Variants of: B1
Assay: self-cleavage, relative activity (ratio to wild type); higher = more cleavage; co-transcriptional

Variant | self-cleavage
G42C G54C | 0.113
A43G G68U | 0.092
A43G G68A | 0.172
G42C G69C | 0.145
G42C G69A | 0.0872
G42C G69U | 0.157
A44U A71U | 0.256
A44U A71C | 0.3
G42A U58C | 0.21
A45C A49U | 0.202
G42U U63G | 0.168
A43C C50G | 0.143
A43C C50A | 0.162
G42U C46U | 0.205
A43G G56C | 0.0421
A43G G56U | 0.0228
G42U A71G | 0.393
G42U A71U | 0.217
G42C A45U | 0.124
G42C A45G | 0.095
G42A U62A | 0.151
G42A U62C | 0.133
A43G A64U | 0.302
A45G A61C | 0.142

Variant | self-cleavage
A43G C65G | 0.117
A43C U67A | 0.0731
A43C U67C | 0.112
A45C A59G | 0.208
A44C U60G | 0.0874
G42C C65A | 0.21
A45G A64C | 0.216
A45G A64G | 0.1
A44G U55G | 0.185
A45G U53A | 0.234
A45G U70C | 0.0703
A44G A45U | 0.0878
A44G A45G | 0.228
A44U U52G | 0.121
G42U C48A | 0.215
G42C A71U | 0.142
G42C A71G | 0.339
G42U G56C | 0.147
G42U G56U | 0.169
A43U C65A | 0.0905
A43G U55G | 0.128
A43U G54C | 0.0498
A43U G54A | 0.128
A43C A49U | 0.142

Variant | self-cleavage
A43C C46U | 0.194
A44G A59G | 0.131
A43U U55G | 0.232
A45C G56C | 0.312
A45C G56A | 0.144
G42A C46U | 0.0972
A44G U63C | 0.21
A44G U63G | 0.239
A43G C46G | 0.26
G42A U60A | 0.0887
A44C A45U | 0.0709
A43G A47C | 0.172
G42U U67A | 0.151
A45U G51C | 0.0528
A43G U52G | 0
A43G U52A | 0.202
A45C A71G | 0.154
G42A U63G | 0.193
A44C G57U | 0.0814
G42A U52A | 0.221
G42C U67G | 0.125
G42C U67A | 0.0793
G42C A47U | 0.147
A43U U70G | 0.0463

Variant | self-cleavage
A45G U58A | 0.174
G42U G57U | 0.187
G42U G57A | 0.187
G42U G57C | 0.0657
G42C U60C | 0.419
A45G C48A | 0.109
A45G U52G | 0.0854
A43G G69A | 0.0947
A44C G69C | 0.141
A44C G69U | 0.167
G42U C50G | 0.26
G42U C50A | 0.189
A44G A64C | 0.12
A44G A64U | 0.102
A43U A44G | 0.163
A43G U60C | 0.0979
G42C U53C | 0.491
A45G U55A | 0.121
A43G C48G | 0.139
G42A A61C | 0.0818
G42A A61U | 0.125
A45C U53G | 0.138
G42U U55A | 0.069
A43C A61C | 0.218

Variant | self-cleavage
A43C A61U | 0.0908
G42C A64G | 0.232
A45C G68C | 0.119
A43G U58A | 0.128
A45G C46A | 0.17
A45G C46U | 0.223
A45G G56C | 0.0912
G42A C48G | 0.127
A43C A59U | 0.101
A43G U67C | 0.153
A43G U67G | 0.207
A44G A49C | 0.0332
A44G A49G | 0.126
G42U A61U | 0.283
G42A U70C | 0.128
A44G C46G | 0.0715
G42A A43C | 0.127
A45C A64C | 0.138
A45C A64U | 0.223
G42U C65G | 0.209
A44G U67C | 0.145
G42C U52C | 0.427
A43G C66A | 0.171
A43G C66G | 0.0518

Variant | self-cleavage
A43G C66U | 0.139
G42C U63G | 0.238
G42C G56C | 0.159
A45C G57C | 0.105
A44G U62C | 0.12
G42C C50A | 0.212
A44C A71C | 0.323
A45G G57A | 0.0893
A44C C48G | 0.151
A44C C48A | 0.161
A43C U52C | 0.109
A43C U52G | 0.164
A45C U67G | 0.0812
A43U C66A | 0.0293
A43U C66U | 0.162
A45G C66A | 0.176
A45G C66G | 0.122
A43U U60C | 0.221
A43U G51U | 0.0946
A43U G51A | 0.247
A43U G51C | 0.241
A44U A59U | 0.0331
A44U A59G | 0.253
G42A A45U | 0.109

Variant | self-cleavage
A44U U63C | 0.135
A44U U63A | 0.141
A45C C65A | 0.2
A45U C48U | 0.135
A45U C48A | 0.14
A43U A61C | 0.123
A43U A61G | 0.144
A44C A59G | 0.158
A44C A59C | 0.15
G42U A45G | 0.131
G42U A45C | 0.227
G42U A45U | 0.112
A44U A61G | 0.124
A44C A47G | 0.125
G42A G68U | 0.144
G42A A49G | 0.118
A45G G54C | 0.0826
A45C U60C | 0.293
G42A G69A | 0.112
G42U G51A | 0.191
G42U G51U | 0.345
A43U G56C | 0.0883
A43U G56U | 0.133

Reference: the RNAGym collection of RNA variant scans (doi:10.7554/elife.80360)
